These results are taken from paper PMC3769929.

The target in this data set is hAgo1 (Homo sapiens, UniProt Q9UL18 1-857). Nature of the data set: X-ray crystallography.

B1: let-7 22mer guide (ssRNA)
RNA: UGAGGUAGUAGGUUGUAUAGUU
modifications: 5' phosphate
Regarding B1, the binding result is recorded as “binds”.
